Substitutions are numbered along the chain they refer to.
T1: CD39 (Homo sapiens, UniProt P49961)
T1 sequence (P49961 1-510): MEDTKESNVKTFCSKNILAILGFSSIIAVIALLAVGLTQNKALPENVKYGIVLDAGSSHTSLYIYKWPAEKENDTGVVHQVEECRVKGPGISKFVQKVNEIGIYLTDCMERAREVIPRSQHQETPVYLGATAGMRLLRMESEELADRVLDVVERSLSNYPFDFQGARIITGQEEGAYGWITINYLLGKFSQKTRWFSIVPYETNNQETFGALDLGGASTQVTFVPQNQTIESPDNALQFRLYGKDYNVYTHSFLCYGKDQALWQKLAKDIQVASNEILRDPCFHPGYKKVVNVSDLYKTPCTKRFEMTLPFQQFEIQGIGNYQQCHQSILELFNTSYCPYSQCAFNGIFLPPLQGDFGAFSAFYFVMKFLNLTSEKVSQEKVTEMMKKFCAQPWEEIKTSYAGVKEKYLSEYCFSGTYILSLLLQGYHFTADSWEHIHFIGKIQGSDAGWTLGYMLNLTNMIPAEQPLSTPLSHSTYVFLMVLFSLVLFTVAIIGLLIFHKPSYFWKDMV

T2: soluble recombinant human CD39 protein (Homo sapiens, UniProt P49961)
T2 construct: made in house; host or cells: CHO cells
T2 sequence (P49961 with tags, fused parts or gaps): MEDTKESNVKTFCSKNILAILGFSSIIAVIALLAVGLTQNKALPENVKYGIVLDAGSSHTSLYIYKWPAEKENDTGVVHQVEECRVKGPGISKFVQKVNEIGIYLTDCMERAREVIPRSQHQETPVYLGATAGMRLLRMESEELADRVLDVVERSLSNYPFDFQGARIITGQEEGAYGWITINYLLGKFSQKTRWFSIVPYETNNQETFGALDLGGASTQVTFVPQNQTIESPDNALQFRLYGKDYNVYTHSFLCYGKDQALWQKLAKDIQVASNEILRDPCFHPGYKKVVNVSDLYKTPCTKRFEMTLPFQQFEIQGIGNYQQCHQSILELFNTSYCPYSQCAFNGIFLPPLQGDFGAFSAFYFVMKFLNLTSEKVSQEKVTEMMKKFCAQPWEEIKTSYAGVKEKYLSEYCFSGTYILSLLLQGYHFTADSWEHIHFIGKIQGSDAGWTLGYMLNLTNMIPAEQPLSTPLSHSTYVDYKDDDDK

T3: CD39 expressed by Ramos human lymphoma cells (Homo sapiens, UniProt P49961)
T3 construct: cells that endogenously express CD39 at their surface; host or cells: Ramos
T3 sequence (P49961 1-510): T1 sequence (P49961 1-510)

T4: membrane-bound CD39 in Mino tumor cells (Homo sapiens, UniProt P49961)
T4 construct: endogenous in cells; host or cells: Mino
T4 sequence (P49961 1-510): T1 sequence (P49961 1-510)

T5: human Ramos lymphoma cells (CD39) (Homo sapiens, UniProt P49961)
T5 construct: cells that endogenously express CD39 at their surface; host or cells: Ramos
T5 sequence (P49961 1-510): T1 sequence (P49961 1-510)

B1: mAb20: humanized I-394 variant, VH H4 (SEQ ID NO: 31), VL L1 (SEQ ID NO: 36); heavy chain SEQ ID NO: 38, light chain SEQ ID NO: 39 (antibody)
heavy: QVQLVQSGAEVKKPGASVKVSCKASGYTFTDYNMHWVRQAPGQRLEWIGYIVPLNGGSTFNQKFKGRATITVDTSARTAYMELSSLRSEDTAVYYCARGGTRFAYWGQGTLVTVSSASTKGPSVFPLAPSSKSTSGGTAALGCLVKDYFPEPVTVSWNSGALTSGVHTFPAVLQSSGLYSLSSVVTVPSSSLGTQTYICNVNHKPSNTKVDKRVEPKSCDKTHTCPPCPAPEAEGAPSVFLFPPKPKDTLMISRTPEVTCVVVDVSHEDPEVKFNWYVDGVEVHNAKTKPREEQYNSTYRVVSVLTVLHQDWLNGKEYKCKVSNKALPSSIEKTISKAKGQPREPQVYTLPPSREEMTKNQVSLTCLVKGFYPSDIAVEWESNGQPENNYKTTPPVLDSDGSFFLYSKLTVDKSRWQQGNVFSCSVMHEALHNHYTQKSLSLSPGK
light: DIVMTQSPDSLAVSLGERATINCRASESVDNFGVSFMYWFQQKPGQPPKLLIYGASNQGSGVPDRFSGSGSGTDFTLTISSLQAEDVAVYYCQQTKEVPYTFGGGTKVEIKRTVAAPSVFIFPPSDEQLKSGTASVVCLLNNFYPREAKVQWKVDNALQSGNSQESVTEQDSKDSTYSLSSTLTLSKADYEKHKVYACEVTHQGLSSPVTKSFNRGEC
B2: mAb21: humanized I-394 variant, VH H4 (SEQ ID NO: 31), VL L1* (SEQ ID NO: 37); heavy chain SEQ ID NO: 38, light chain SEQ ID NO: 40 (antibody)
heavy: B1 heavy
light: B1 light with R24K

Tests used:
CD39 = molecular target: T1, CD39; conditions: Levesque et al. (2007); cited from earlier work
[1] = molecular target: T2, soluble recombinant human CD39 protein; test: Inhibition of the enzymatic activity of soluble CD39 (Cell Titer Glo, cell-free); assay type: biochemical; conditions: humanized variants
Procedure: (§1) The inhibition by antibodies of the enzymatic activity of soluble CD39 protein produced was evaluated using Cell Titer GIo™ (Promega, reference G7571) that allows assessment of ATP hydrolysis through use of a reagent that generates a luminescent signal proportional to the amount of ATP present. In this way, inhibition of the soluble-CD39-meidated ATP hydrolysis can be assessed. Briefly, dose ranges of anti-CD39 antibodies from 100 μg/ml to […] were incubated with 400 ng/ml of soluble recombinant human CD39 protein having the amino acid sequence described in the Methods section (SEQ ID NO: 44), for 1 h at 37° C. 20 μM ATP was added to the plates for 30 additional minutes at 37° C. before addition of CTG (Cell Titer Glo) reagent. Emitted light was quantified using an Enspire™ luminometer after a short incubation period of 5 min in the dark. Anti-CD39 antibody efficacy was determined by comparing emitted light in presence of antibody with ATP alone (maximal light emission) and ATP together with soluble CD39 protein (minimal light emission).

[2] = molecular target: T3, CD39 expressed by Ramos human lymphoma cells; test: Inhibition of the enzymatic activity of cellular CD39 in Ramos cells; assay type: cell-based; conditions: Ramos cells
Procedure: (§2) The inhibition of the CD39 enzymatic activity in CD39-expressing cells by antibodies was evaluated using Cell Titer GIo™ (Promega, reference G7571) that allows assessment of ATP hydrolysis through use of a reagent that generates a luminescent signal proportional to the amount of ATP present. The assay was thus designed to permit assessment of the inhibition of ATP hydrolyzed by CD39 in the cell culture supernatant. Briefly, 5×10^4 Ramos human lymphoma cells, 5×10^3 human CD39−, cynomolgus CD39—and mouse CD39− expressing CHO cells, were incubated 1 hour at 37° C. with anti-CD39 antibodies from 30 μg/ml to 5×10^−4 μg/ml. Cells were then incubated with 20 μM ATP for 1 additional hour at 37° C. Plates were centrifuged for 2 min at 400 g and 50 μl cell supernatant are transferred in a luminescence microplate (white wells). 50 μl CellTiter-Glo™ Reagent (CTG) was added to the supernatant and emitted light was quantified after a 5 min incubation in the dark using a Enspire™ luminometer. Anti-CD39 antibody efficacy was determined by comparing emitted light in presence of antibody with ATP alone (maximal light emission) and ATP together with cells (minimal light emission).

[3] = molecular target: T4, membrane-bound CD39 in Mino tumor cells; test: Inhibition of the enzymatic activity of cellular CD39 in Mino cells; assay type: cell-based
Procedure: as §2
Antibodies were tested for potency in inhibition of ATPase activity in cell lines that express membrane-bound CD39. […]

[4] = molecular target: T5, human Ramos lymphoma cells (CD39); test: Antibody titration on Ramos cells by flow cytometry; assay type: binding; conditions: comparison
Procedure: Antibody I-394 was tested in two repeated experiments for binding to CHO cells expressing human CD39, CHO cells expressing cynomolgus (Macaca fascicularis) CD39, CHO cells expressing murine CD39, and human Ramos lymphoma cells (ATCC™, reference CRL-1596). Cells were incubated with various concentration of unlabeled anti-CD39 antibody from 30 μg/ml to 5×10^−4 μg/ml, for 30 minutes at 4° C. After washes, cells were incubated with Goat anti-mouse H+L labeled secondary antibody for 30 min at 4° C.

[5] = system: soluble CD39 protein released in cell culture supernatant from CHO cells expressing human CD39; test: Inhibition of ATPase activity of soluble CD39 released in CHO-huCD39 culture supernatant; assay type: biochemical; conditions: humanized variants
Procedure: as §1
Antibodies were tested for capacity to inhibit the ATPase activity of soluble CD39 protein using the assays used for inhibition of the enzymatic activity of soluble CD39 as described above (Methods). […]

[6] = Stability in reference formulation (storage, freeze thaw); assay type: physicochemical; conditions: about 7 mg/mL, pH 6.0 histidine/sucrose/NaCl/PS80, +5° C. and +40° C., up to 1 month
Procedure: (§3) Antibodies mAb1-24 and prior art anti-CD39 antibody BY40, all produced as human IgG1 isotypes with L234A/L235E/G237A/A330S/P331S substitutions were tested for stability in the following reference formulation at a concentration of approximatively 7 mg/mL: pH 6.0; histidine buffer (10 mM); sucrose (200 mM); NaCl (50 mM); Polysorbate 80 (PS80) (0.2 g/L). The stability of the formulations was monitored in two storage conditions (at +5° C.±3° C. and at +40±3° C. For each study, 3 time points were performed: T0, T15D (15 days) and T1M (1 month). A freeze thaw (F/T) and a thermal shift stability assay (TSSA) were conducted for the format comparison. To perform F/T cycles, the samples were frozen at least 2 hours at −20° C. and thawed at least 1 hour at room temperature, the F/T cycle is repeated three times and samples are tested 24 h after the last Freeze/Thaw cycle. At each time point, the following tests were performed: • Particulate Matter (MFI) • Visual Inspection (Appearance) • Impurities (SE-HPLC) • Turbidity (400 nm) • Protein Concentration (280 nm) (performed with Nanodrop, Thermo Fisher Scientific Inc.)

[7] = Aggregation temperature (thermal shift stability assay); assay type: physicochemical; conditions: human IgG1 with L234A/L235E/G237A/A330S/P331S
Procedure: as §3

binding to Ramos cells relative to I-394 [4] | Molecule | inhibition of CD39 (mode, strength) (CD39) | potency for inhibition of soluble CD39 relative to parental I-394 [1] | potency at blocking CD39 enzymatic activity relative to other antibodies [2] | potency at blocking CD39 enzymatic activity relative to other antibodies [3] | potency relative to parental I-394, soluble CD39 in CHO-huCD39 supernatant [5] | physicochemical stability [6] | Aggregation temperature (TAgg) [7] [°C]
 | CCN(CC)c1ncnc2c1ncn2[C@@H]1O[C@H](COP(=O)(O)OP(=O)(O)C(Br)(Br)P(=O)(O)O)[C@@H](O)[C@H]1O [ARL67156] | weak competitive inhibitor |  |  |  |  |  | 
best binding | B1 |  | comparable to the parental I-394 antibody | more potent at blocking CD39 enzymatic activity compared to all other antibodies | more potent at blocking CD39 enzymatic activity compared to all other antibodies | comparable to the parental I-394 antibody | good physicochemical stability | ~70
best binding | B2 |  | comparable to the parental I-394 antibody | more potent at blocking CD39 enzymatic activity compared to all other antibodies | more potent at blocking CD39 enzymatic activity compared to all other antibodies | comparable to the parental I-394 antibody | good physicochemical stability | ~70
